In patent US20090092617A1 (K BENHAVNS UNIVERSITET, published 2009):
Where no end group is shown, it is not given here.

B1: Inherbin1 peptide, tetrameric dendrimer (peptide)
peptide: MLYNPTTYQMDVNPEGK
modifications: also: tetrameric dendrimer: four monomers coupled to a lysine backbone
notes: It was immobilized on a CM5 chip by amine coupling; also called 1DL

Columns and labels:
[1] = biological target: T1, Human ErbB2 extracellular part fused to Fc of human IgG1 (human, UniProt P04626 23-652); assay: SPR (BIAcore 2000), peptide immobilized on CM5 chip, receptor protein injected
T1 construct: extracellular domain; also called ErbB2-Fc chimeric protein; not shown: Fc region of human IgG1
Protocol: (§1) Binding analyses were performed with the surface plasmon resonance (SPR)-based biosensor instrument BIAcore2000 (BIAcore AB, Uppsala, Sweden), at 25° C. using ready-made HBS-EP buffer (BIAcore AB) as running buffer. Peptides were immobilized on the surface of a CM5 sensor chip (BIAcore AB) using an amine coupling kit (Biosensor AB, Uppsala, Sweden) according to the manufacturer's instructions, at a flow rate of 5 μl/min. Briefly, carboxyl groups on the sensor chip surface were activated by injection of 35 μl activation solution followed by injection of peptide (50 μg/ml peptide in HBS-EP buffer, pH 7.4) until the desired level of immobilized peptide was reached. Unreacted peptide was washed out and unreacted activated groups were blocked by the injection of 35 μl 1 M ethanolamine. The final immobilization response was app. 7000-9000 resonance units (RU). A reference surface was generated simultaneously under the same conditions but without peptide injection and used as a blank chip control. ErbB receptor proteins were injected at various concentrations at a flow rate of 20 μl/min, and binding to the peptides immobilized on the chip was measured in real-time. The curve corresponding to the difference between signals on flow cells with immobilized peptide and the signal on the blank flow cell was used for analysis. Each sensorgram consists of an association phase (the first 320 seconds), reflecting binding of the injected receptor to the peptide, and a dissociation phase (app. 300 seconds), during which running buffer is passed over the chip and the bound receptor is being washed off. Data were analyzed by nonlinear curve fitting using the manufacturer' software. The recombinant protein comprising the whole extracellular part of human ErbB1 (also termed the EGF receptor, EGFR) was purchased from Research Diagnostics (Concord, Mass., USA). Recombinant proteins comprising the Fc region of human IgG₁ and the Fc protein fused to the extracellular parts of human ErbB2, ErbB3 or ErbB4 were purchased from R&D Systems Europe (Abingdon, UK).
(§2) The binding of three Inherbin peptides to all four members of the ErbB receptor family was determined using surface plasmon resonance (SPR) binding analysis (table 1).

[2] = biological target: T2, Human ErbB4 extracellular part fused to Fc of human IgG1 (human, UniProt Q15303 26-651); assay: as above
T2 construct: extracellular domain; also called ErbB4-Fc chimeric protein; not shown: Fc region of human IgG1
T2 sequence (looked up): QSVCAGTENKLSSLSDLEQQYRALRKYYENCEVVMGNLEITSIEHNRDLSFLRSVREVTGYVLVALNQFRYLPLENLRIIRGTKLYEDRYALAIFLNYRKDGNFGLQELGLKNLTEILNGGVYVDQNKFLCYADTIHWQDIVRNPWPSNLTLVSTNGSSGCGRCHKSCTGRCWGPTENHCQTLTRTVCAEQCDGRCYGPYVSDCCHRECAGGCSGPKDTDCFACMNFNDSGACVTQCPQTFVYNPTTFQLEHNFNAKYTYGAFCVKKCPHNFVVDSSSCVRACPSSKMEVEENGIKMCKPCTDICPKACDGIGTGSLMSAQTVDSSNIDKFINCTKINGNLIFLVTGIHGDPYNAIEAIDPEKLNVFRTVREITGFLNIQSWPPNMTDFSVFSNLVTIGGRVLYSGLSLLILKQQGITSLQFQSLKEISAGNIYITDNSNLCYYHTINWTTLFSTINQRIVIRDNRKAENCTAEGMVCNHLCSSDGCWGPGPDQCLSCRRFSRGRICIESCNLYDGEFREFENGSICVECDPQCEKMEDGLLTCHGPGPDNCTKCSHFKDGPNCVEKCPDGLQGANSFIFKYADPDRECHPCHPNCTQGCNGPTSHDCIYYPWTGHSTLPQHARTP
Protocol: as §1, §2

[3] = biological target: T3, Recombinant protein comprising the whole extracellular part of human ErbB1 (human, UniProt P00533 25-645); assay: SPR (BIAcore 2000), peptide dendrimer immobilized, receptor ECD injected; mean ± SEM
T3 construct: extracellular domain; also called EGF receptor; EGFR
Protocol: (§3) Binding analyses were performed with the surface plasmon resonance (SPR)-based biosensor instrument BIAcore2000 (BIAcore AB, Uppsala, Sweden), at 25° C. using ready-made HBS-EP buffer (BIAcore AB) as running buffer. Peptides were immobilized on the surface of a CM5 sensor chip (BIAcore AB) using an amine coupling kit (Biosensor AB, Uppsala, Sweden) according to the manufacturer's instructions, at a flow rate of 5 μl/min. Briefly, carboxyl groups on the sensor chip surface were activated by injection of 35 μl activation solution followed by injection of peptide (50 μg/ml peptide in HBS-EP buffer, pH 7.4) until the desired level of immobilized peptide was reached. Unreacted peptide was washed out and unreacted activated groups were blocked by the injection of 35 μl 1 M ethanolamine. The final immobilization response was app. 7000-9000 resonance units (RU). […] ErbB receptor proteins were injected at various concentrations at a flow rate of 20 μl/min, and binding to the peptides immobilized on the chip was measured in real-time. […] Data were analyzed by nonlinear curve fitting using the manufacturer' software. […]
as §2

[4] = biological target: T4, Human ErbB3 extracellular part fused to Fc of human IgG1 (human, UniProt P21860 20-643); assay: SPR (BIAcore 2000), peptide dendrimer immobilized, receptor ECD-Fc injected; mean ± SEM
T4 construct: extracellular domain; also called ErbB3-Fc chimeric protein; not shown: Fc region of human IgG1
T4 sequence (P21860 20-643): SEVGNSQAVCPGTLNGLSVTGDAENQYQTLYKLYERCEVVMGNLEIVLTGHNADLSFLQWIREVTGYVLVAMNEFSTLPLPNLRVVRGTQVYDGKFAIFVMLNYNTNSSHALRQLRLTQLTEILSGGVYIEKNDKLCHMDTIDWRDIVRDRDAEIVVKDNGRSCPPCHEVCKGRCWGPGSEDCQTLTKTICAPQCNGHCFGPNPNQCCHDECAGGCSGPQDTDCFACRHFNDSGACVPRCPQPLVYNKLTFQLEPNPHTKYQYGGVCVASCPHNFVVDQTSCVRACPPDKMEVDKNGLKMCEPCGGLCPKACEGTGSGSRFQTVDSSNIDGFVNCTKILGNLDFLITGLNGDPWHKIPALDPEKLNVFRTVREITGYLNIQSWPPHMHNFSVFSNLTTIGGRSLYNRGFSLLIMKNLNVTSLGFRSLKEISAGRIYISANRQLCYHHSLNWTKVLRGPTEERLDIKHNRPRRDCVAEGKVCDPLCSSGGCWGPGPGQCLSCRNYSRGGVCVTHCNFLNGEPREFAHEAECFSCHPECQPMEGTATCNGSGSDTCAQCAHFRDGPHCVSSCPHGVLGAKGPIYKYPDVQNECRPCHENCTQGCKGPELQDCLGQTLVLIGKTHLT
Protocol: as §1, §2

[5] = biological target: T3, Recombinant protein comprising the …; assay: SPR (BIAcore 2000), peptide dendrimer immobilized, receptor ECD injected; mean ± SEM, SEM 4.9e-9 in r8c2
Protocol: as §3, §2

[6] = biological target: T4, Human ErbB3 extracellular part fused to …; assay: SPR (BIAcore 2000), peptide dendrimer immobilized, receptor ECD-Fc injected; mean ± SEM, SEM 8e-9 in r11c2
Protocol: as §3, §2

[7] = biological target: T1, Human ErbB2 extracellular part fused to …; assay: SPR (BIAcore 2000), peptide dendrimer immobilized, receptor ECD-Fc injected; mean ± SEM
Protocol: as §1, §2

[8] = biological target: T2, Human ErbB4 extracellular part fused to …; assay: as above
Protocol: as §1, §2

Binder	binding result [1]	binding result [2]	Kd [3] [µM]	Kd [4] [µM]	Kd [5] [µM]	Kd [6] [µM]	Kd [7] [µM]	Kd [8] [µM]
LVYNKLTFQLEPNPHTK (also: tetrameric dendrimer: four monomers coupled to a lysine backbone, also called 3DL) [Inherbin3d, tetrameric dendrimer of the Inherbin3 peptide]	no binding (tested: 32 µM (concentration given for FIG. 1))	no binding (tested: 32 µM (concentration given for FIG. 1))	0.07	0.0179	–	–	–	–
B1	no binding	no binding	–	–	0.0136	0.049	–	–
FVYNPTTFQLEMNFNAK (also: tetrameric dendrimer: four monomers coupled to a lysine backbone, also called 4DL) [Inherbin4 peptide, tetrameric dendrimer]	–	–	0.297	0.0199	–	–	0.043	0.0904
